Assay results from patent US20030144191.

B1: TRP-PLIK2-GST fusion protein (TRP-PLIK2 kinase domain fused to GST) (protein)
chain: PMTMSSPLSQAKIMQTGGGYVNWAFSEGDETGVFSIKKKWQTCLPSTCDSDSSRSEQHQKQAQDSSLSDNSTRSAQSSECSEVGPWLQPNTSFWINPLRRYRPFARSHSFRFHKEEKLMKICKIKNLSGSSEIGQGAWVKAKMLTKDRRLSKKKKNTQGLQVPIITVNACSQSDQLNPEPGENSISEEEYSKNWFTVSKFSHTGVEPYIHQKMKTKEIGQCAIQISDYLKQSQEDLSKNSLWNSRSTNLNRNSLLKSSIGVDKISASLKSPQEPHHHYSAIERNNLMRLSQTIPFTPVQLFAGEEITVYRLEESSPLNLDKSMSSWSQRGRAAMIQVLSREEMDGGLRKAMRVVSTWSEDDILKPGQVFIVKSFLPEVVRTWHKIFQESTVLHLCLREIQQQRAAQKLIYTFNQVKPQTIPYTPRFLEVFLIYCHSANQWLTIEKYMTGEFRKYNNNNGDEITPTNTLEELMLAFSHWTYEYTRGELLVLDLQGVGENLTDPSVIKPEVKQSRGMVFGPANLGEDAIRNFIAKHHCNSCCRKLKLPDLKRNDYSPERINSTFGLEIKIESAEEPPARETGRNSPEDDMQL
B1 was tested, and the “32P incorporation (kinase assay, SDS-PAGE, autoradiography)” value (Histon) was “MBP was determined to be a preferred substrate over Histon”, the “32P incorporation (kinase assay, SDS-PAGE, autoradiography)” value (MBP) was “MBP was determined to be a preferred substrate over Histon” and the “incorporated 32P in the substrate (kinase assay, SDS-PAGE, autoradiography)” value (MBP) was “predicted TRP-PLIK2 kinase domain was determined to have kinase activity as demonstrated by the phosphorylated MBP protein”.
